Test results published in patent publication US20220175942A1.

What was measured:
Experiment in all cases: -; previously described evasin
CCL14_HUMAN = biological target: CCL14_HUMAN
CCL16_HUMAN = biological target: CCL16_HUMAN
CCL21_HUMAN = biological target: CCL21_HUMAN
CCL23_HUMAN = biological target: CCL23_HUMAN
CCL24_HUMAN = biological target: CCL24_HUMAN
CCL26_HUMAN = biological target: CCL26_HUMAN
CCL7_HUMAN = biological target: CCL7_HUMAN
CXCL1_HUMAN = biological target: CXCL1_HUMAN
CCL3L1_HUMAN = biological target: CCL3L1_HUMAN

Substance: EVASIN4
- Kd (CCL14_HUMAN): 0.14 nM
- Kd (CCL16_HUMAN): 0.26 nM
- Kd (CCL21_HUMAN): 0.01 nM
- Kd (CCL23_HUMAN): 4.43 nM
- Kd (CCL24_HUMAN): 0.41 nM
- Kd (CCL26_HUMAN): 0.88 nM
- Kd (CCL7_HUMAN): 0.7 nM

Substance: EVASIN3
- Kd (CXCL1_HUMAN): 0.85 nM

Substance: EVASIN1
- Kd (CCL3L1_HUMAN): 0.05 nM
